Measurements reported in the supplement of paper PMC6379048.

How the values were obtained:
Test in all cases: Kd (EC50 corrected by depletion factor)
SKIV2L2 = biological target: T1, SKIV2L2 (UniProt P42285)
T1 sequence: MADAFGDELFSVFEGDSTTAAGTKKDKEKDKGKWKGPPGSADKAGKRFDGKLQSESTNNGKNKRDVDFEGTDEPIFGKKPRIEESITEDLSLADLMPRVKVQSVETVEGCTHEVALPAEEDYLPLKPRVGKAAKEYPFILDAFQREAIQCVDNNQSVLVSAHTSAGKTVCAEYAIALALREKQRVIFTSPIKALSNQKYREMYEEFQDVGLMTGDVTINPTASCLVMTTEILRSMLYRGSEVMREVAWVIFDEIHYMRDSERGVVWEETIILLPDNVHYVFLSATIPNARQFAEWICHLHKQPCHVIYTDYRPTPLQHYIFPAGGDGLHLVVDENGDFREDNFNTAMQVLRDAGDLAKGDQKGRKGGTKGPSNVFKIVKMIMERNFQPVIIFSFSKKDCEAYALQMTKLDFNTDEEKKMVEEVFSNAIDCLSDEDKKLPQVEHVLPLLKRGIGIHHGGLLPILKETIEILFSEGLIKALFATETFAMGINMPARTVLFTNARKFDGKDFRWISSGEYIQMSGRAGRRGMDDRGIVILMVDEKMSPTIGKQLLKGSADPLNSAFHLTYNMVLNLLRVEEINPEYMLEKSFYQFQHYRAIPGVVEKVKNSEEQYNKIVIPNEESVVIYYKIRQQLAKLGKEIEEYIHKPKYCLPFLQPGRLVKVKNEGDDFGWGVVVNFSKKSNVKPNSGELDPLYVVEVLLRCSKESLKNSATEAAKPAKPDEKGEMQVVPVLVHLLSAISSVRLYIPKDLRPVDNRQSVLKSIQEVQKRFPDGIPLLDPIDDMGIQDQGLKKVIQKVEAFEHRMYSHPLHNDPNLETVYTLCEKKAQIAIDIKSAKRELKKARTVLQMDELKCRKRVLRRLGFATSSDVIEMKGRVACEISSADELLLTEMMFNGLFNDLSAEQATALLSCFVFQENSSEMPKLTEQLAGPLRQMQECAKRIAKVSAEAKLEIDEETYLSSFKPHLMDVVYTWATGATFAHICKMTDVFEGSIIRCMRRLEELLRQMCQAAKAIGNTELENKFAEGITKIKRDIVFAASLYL
Protocol: (§1)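 Competition-binding assay: HEK293-FT cell lysate (2.5 mg protein) pre-incubated 1 h at 4°C with free motif-containing RNA oligos (0 to 30 µM, 12 doses), then pulled down with the same 5'-amino-C6 RNA oligos immobilised on NHS-Sepharose beads (30 min, 4°C). Bound proteins were quantified by label-free LC-MS/MS and normalised to the water control. EC50 came from a four-parameter log-logistic fit; Kd = EC50 x depletion factor. Random/reversed control probes are dropped.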

DIS3L2 = biological target: T2, DIS3L2 (UniProt Q8IYB7)
T2 sequence: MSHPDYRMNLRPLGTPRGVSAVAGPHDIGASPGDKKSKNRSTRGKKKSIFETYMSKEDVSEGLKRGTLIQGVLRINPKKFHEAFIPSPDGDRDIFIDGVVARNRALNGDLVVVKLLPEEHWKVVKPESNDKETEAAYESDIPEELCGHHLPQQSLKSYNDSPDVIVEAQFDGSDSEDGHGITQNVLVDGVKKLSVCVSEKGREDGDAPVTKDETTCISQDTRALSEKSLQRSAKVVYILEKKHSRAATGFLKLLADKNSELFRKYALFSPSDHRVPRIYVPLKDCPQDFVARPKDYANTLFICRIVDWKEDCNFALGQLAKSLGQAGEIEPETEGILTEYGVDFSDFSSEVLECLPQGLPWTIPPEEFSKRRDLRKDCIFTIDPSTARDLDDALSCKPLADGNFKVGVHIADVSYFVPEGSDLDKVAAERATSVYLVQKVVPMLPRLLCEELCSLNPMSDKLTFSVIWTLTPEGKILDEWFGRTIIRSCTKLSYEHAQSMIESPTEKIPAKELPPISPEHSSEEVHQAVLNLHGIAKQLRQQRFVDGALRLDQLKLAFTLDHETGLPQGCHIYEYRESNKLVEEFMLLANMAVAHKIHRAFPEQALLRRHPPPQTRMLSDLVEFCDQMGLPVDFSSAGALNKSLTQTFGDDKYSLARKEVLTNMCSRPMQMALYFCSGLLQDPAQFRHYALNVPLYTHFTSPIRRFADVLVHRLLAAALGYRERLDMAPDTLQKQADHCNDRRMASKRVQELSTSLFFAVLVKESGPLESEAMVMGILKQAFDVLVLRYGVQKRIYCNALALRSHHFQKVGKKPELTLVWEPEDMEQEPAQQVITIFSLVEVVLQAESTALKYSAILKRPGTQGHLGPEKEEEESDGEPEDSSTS
Protocol: as §1

LIN28B = biological target: T3, LIN28B (UniProt Q6ZN17)
T3 sequence: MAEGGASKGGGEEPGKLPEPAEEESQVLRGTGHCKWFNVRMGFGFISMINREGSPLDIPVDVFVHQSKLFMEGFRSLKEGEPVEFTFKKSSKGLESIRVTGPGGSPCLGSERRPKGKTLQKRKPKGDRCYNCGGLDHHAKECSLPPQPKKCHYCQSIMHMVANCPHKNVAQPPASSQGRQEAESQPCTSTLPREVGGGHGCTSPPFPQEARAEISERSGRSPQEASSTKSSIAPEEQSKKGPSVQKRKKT
Protocol: as §1

Sequence | Kd (SKIV2L2) | Kd (DIS3L2) | Kd (LIN28B)
UAUUUAU | 202 nM | 290 nM | 1100 nM
AAUAAA | 393 nM | 383 nM | 610 nM
CUGUCCU | 2450 nM | 774 nM | 1220 nM
